The target of assay [1] is T1, pyroglutamated human Aβ3-11 with the addition of a C-terminal cysteine residue, pE-FRHDSGYE-C (not fully specified).
T1 peptide: [pGlu]FRHDSGYEC
As to the kind of experiment: Biacore SPR; KD1 (first binding step). (In general: Surface plasmon resonance follows binding to a sensor surface in real time, without labels.)

The target in assay [2] is T1, pyroglutamated human Aβ3-11 with the …. As to the kind of experiment: Biacore SPR; overall KD.

Where no end group is shown, it is not given here. [ ]: non-standard residue; d: D form. pGlu = O=C1CC[C@@H](C(=O)O)N1

B1: monoclonal antibody 5C9 (antibody, V domains shown)
VH: QIQLQQSGPELVKPGAAVKISCKASGYTFTDYYLNWVKQKPGQGLEWIGWIYPGSGNVKYNEKFKGKATLTADTSSNTAHMQLSSLTSEDTAVYFCTREGLIVYWGQGTLVTVSA
VL: DVVLTQTPFTLSVTIGQPASISCKSSQSLLHSNGESYLNWLFQRPGQSPKRLIYAVSKLDSGVPDRFTGSGSGTDFTLKISRVEAEDLGVYYCVQGTHFPFTFGGGTKLEIK
The Kd is the constant that tells how readily two partners part at equilibrium. As to B1, the figures for the Kd in assay [1] and in assay [2] were 0.116 nM and 8.2 nM, respectively.

B2: monoclonal antibody 2E8 (antibody, V domains shown)
VH: QIQLQQSGPDLVKPGASVKISCKASGYTFTDYYINWVKQKPGQGLEWIGWLNPGSGNTKYNEKFKGKATMTVDTTSSTVYMQLSSLTSEDSAVYFCTREGPIDYWGRGTSVTVSS
VL: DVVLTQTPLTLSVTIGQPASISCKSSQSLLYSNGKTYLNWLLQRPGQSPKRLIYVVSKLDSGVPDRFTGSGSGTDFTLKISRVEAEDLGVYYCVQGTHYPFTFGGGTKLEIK
For the molecule B2, the Kd turned out to be 3.46 nM in assay [1] and 64 nM in assay [2].

Source of the values: patent publication US20170022268A1 (published 2017).
